# In paper doi:10.1101/695700:
# Target: complement C3
# Assay: SPR
binder,measurement,value
"recombinant HC1 (rHC1), wild type; heavy chain 1 of inter-α-inhibitor (natural protein) SKSSEKRQAVDTAVDGVFIRSLKVNCKVTSRFAHYVVTSQVVNTANEAREVAFDLEIPKTAFISDFAVTADGNAFIGDIKDKVTAWKQYRKAAISGENAGLVRASGRTMEQFTIHLTVNPQSKVTFQLTYEEVLKRNHMQYEIVIKVKPKQLVHHFEIDVDIFEPQGISKLDAQASFLPKELAAQTIKKSFSGKKGHVLFRPTVSQQQSCPTCSTSLLNGHFKVTYDVSRDKICDLLVANNHFAHFFAPQNLTNMNKNVVFVIDISGSMRGQKVKQTKEALLKILGDMQPGDYFDLVLFGTRVQSWKGSLVQASEANLQAAQDFVRGFSLDEATNLNGGLLRGIEILNQVQESLPELSNHASILIMLTDGDPTEGVTDRSQILKNVRNAIRGRFPLYNLGFGHNVDFNFLEVMSMENNGRAQRIYEDHDATQQLQGFYSQVAKPLLVDVDLQYPQDAVLALTQNHHKQYYEGSEIVVAGRIADNKQSSFKADVQAHGEGQEFSITCLVDEEEMKKLLRERGHMLENHVERLWAYLTIQELLAKRMKVDREERANLSSQALQMSLDYGFVTPLTSMSIRGMADQDGLKPTIDKPSEDSPPLEMLGPRRTFVLSALQPSPTHSSSNTQRLPDRVTGVDTD",Kd,360 nM
